Data on two variants can be found in IntAct's records for PubMed 18434552.

The chains are these.
B1: Tyrosine-protein phosphatase non-receptor type 23 (Homo sapiens), Q9H3S7 (parent)
chain: MEAVPRMPMIWLDLKEAGDFHFQPAVKKFVLKNYGENPEAYNEELKKLELLRQNAVRVPRDFEGCSVLRKYLGQLHYLQSRVPMGSGQEAAVPVTWTEIFSGKSVAHEDIKYEQACILYNLGALHSMLGAMDKRVSEEGMKVSCTHFQCAAGAFAYLREHFPQAYSVDMSRQILTLNVNLMLGQAQECLLEKSMLDNRKSFLVARISAQVVDYYKEACRALENPDTASLLGRIQKDWKKLVQMKIYYFAAVAHLHMGKQAEEQQKFGERVAYFQSALDKLNEAIKLAKGQPDTVQDALRFTMDVIGGKYNSAKKDNDFIYHEAVPALDTLQPVKGAPLVKPLPVNPTDPAVTGPDIFAKLVPMAAHEASSLYSEEKAKLLREMMAKIEDKNEVLDQFMDSMQLDPETVDNLDAYSHIPPQLMEKCAALSVRPDTVRNLVQSMQVLSGVFTDVEASLKDIRDLLEEDELLEQKFQEAVGQAGAISITSKAELAEVRREWAKYMEVHEKASFTNSELHRAMNLHVGNLRLLSGPLDQVRAALPTPALSPEDKAVLQNLKRILAKVQEMRDQRVSLEQQLRELIQKDDITASLVTTDHSEMKKLFEEQLKKYDQLKVYLEQNLAAQDRVLCALTEANVQYAAVRRVLSDLDQKWNSTLQTLVASYEAYEDLMKKSQEGRDFYADLESKVAALLERTQSTCQAREAARQQLLDRELKKKPPPRPTAPKPLLPRREESEAVEAGDPPEELRSLPPDMVAGPRLPDTFLGSATPLHFPPSPFPSSTGPGPHYLSGPLPPGTYSGPTQLIQPRAPGPHAMPVAPGPALYPAPAYTPELGLVPRSSPQHGVVSSPYVGVGPAPPVAGLPSAPPPQFSGPELAMAVRPATTTVDSIQAPIPSHTAPRPNPTPAPPPPCFPVPPPQPLPTPYTYPAGAKQPIPAQHHFSSGIPAGFPAPRIGPQPQPHPQPHPSQAFGPQPPQQPLPLQHPHLFPPQAPGLLPPQSPYPYAPQPGVLGQPPPPLHTQLYPGPAQDPLPAHSGALPFPSPGPPQPPHPPLAYGPAPSTRPMGPQAAPLTIRGPSSAGQSTPSPHLVPSPAPSPGPGPVPPRPPAAEPPPCLRRGAAAADLLSSSPESQHGGTQSPGGGQPLLQPTKVDAAEGRRPQALRLIERDPYEHPERLRQLQQELEAFRGQLGDVGALDTVWRELQDAQEHDARGRSIAIARCYSLKNRHQDVMPYDSNRVVLRSGKDDYINASCVEGLSPYCPPLVATQAPLPGTAADFWLMVHEQKVSVIVMLVSEAEMEKQKVARYFPTERGQPMVHGALSLALSSVRSTETHVERVLSLQFRDQSLKRSLVHLHFPTWPELGLPDSPSNLLRFIQEVHAHYLHQRPLHTPIIVHCSSGVGRTGAFALLYAAVQEVEAGNGIPELPQLVRRMRQQRKHMLQEKLHLRFCYEAVVRHVEQVLQRHGVPPPCKPLASASISQKNHLPQDSQDLVLGGDVPISSIQATIAKLSIRPPGGLESPVASLPGPAEPPGLPPASLPESTPIPSSSPPPLSSPLPEAPQPKEEPPVPEAPSSGPPSSSLELLASLTPEAFSLDSSLRGKQRMSKHNFLQAHNGQGLRATRPSDDPLSLLDPLWTLNKT
partner: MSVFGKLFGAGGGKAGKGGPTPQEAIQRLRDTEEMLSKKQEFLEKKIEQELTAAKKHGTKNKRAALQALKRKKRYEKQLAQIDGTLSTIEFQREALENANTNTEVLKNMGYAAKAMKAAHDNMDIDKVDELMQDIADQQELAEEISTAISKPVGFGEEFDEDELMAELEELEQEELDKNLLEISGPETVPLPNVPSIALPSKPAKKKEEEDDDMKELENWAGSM

The variants in the assay derive from B1. Conditions: with chm4b_human CHMP4B.
In the case of L202D, the “effect of a mutation on the interaction” value was “disrupting interaction”. The value for L202D;I206D was “disrupting interaction”.
